Test results taken from paper PMC2603668, “Rhabdovirus Matrix Protein Structures Reveal a Novel Mode of Self-Association” (PLoS Pathogens, 2008).

Target: the molecule itself
Assay: crystal structure

B1: matrix (M) protein from Lagos bat virus (natural protein)
chain: MNFLRKIVKNCKDEEIPKPGTPSAPPDDDDLWMPPPEYVPLTQIKGKENVRNFCINGEIKICSPNGYSFRILRHILKSFDNVYSGNRRLIGVVKVVIGLVLSASPVPEGMNWVYKLRRTLIFQWAESHGPLEGEELEYSQEITWDDEAEFVSLQIRVSAKQCHIQGRLWCINMNSKACQLWADMGLKTQQSQEDENTSLLLE
notes: also called LBV M; full-length LBV M
B1: binds.
